Measured values: paper PMC5394680

Molecular target: Alexa488-labeled H3-H4 dimer (UniProt P84233)
Assay: fluorescence polarisation; 5 nM Alexa488-labeled H3-H4 dimer with increasing amounts of CAF-1; 25 mM TRIS pH 7.5, 300 mM NaCl, 5% glycerol, 1 mM EDTA, 0.01% NP-40, 0.01% CHAPS, 1 mM DTT

Row | Substance | Kd
1 | full-length (FL) yeast CAF-1 complex (from UniProt Q12495 1-606; Q04199 1-449; P13712 1-422) | 0.3 nM
2 | tCAF_∆2 (tCAF-1 sub-complex lacking the middle subunit Cac2) (from UniProt Q12495 233-606; P13712 1-422) | 25 nM
3 | tCAF_∆ac (trimeric tCAF-1 with the acidic region of Cac1 deleted) (from UniProt Q12495 233-606; Q04199 1-449; P13712 1-422) (complex) | 60 nM
4 | Cac2 (middle subunit of yeast CAF-1), C-terminal His-tag (from UniProt Q04199 1-449) (natural protein) | > 1000 nM
5 | tCAF_∆3 (tCAF-1 sub-complex lacking the small subunit Cac3) (from UniProt Q12495 233-606; Q04199 1-449) | 1.3 nM
6 | tCAF_Nac (trimeric tCAF-1 with the acidic region of Cac1 replaced by a neutral Gly-Ser-Leu peptide) (from UniProt Q12495 233-606; Q04199 1-449; P13712 1-422) (complex) | 8 nM
7 | tCAF-1 (tCac1 233-606 with Cac2 and Cac3) (from UniProt Q12495 233-606; Q04199 1-449; P13712 1-422) (complex) | 0.5 nM
8 | Cac3 (small subunit of yeast CAF-1) (from UniProt P13712 1-422) (natural protein) | 77 nM
